Results taken from patent publication US20090239765A1, “GENES WHOSE EXPRESSION IS INCREASED IN RESPONSE TO STIMULATION BY CORTICOTROPIN-RELEASING HORMONE” (priority 2003, published 2009).

Key:
[1] = molecular target: T1, CRH-R1 (Mus musculus, UniProt P35347); test: Microarray transcriptional response to CRH in AtT-20 cells (Murine Genome U74Av2 arrays); assay type: cell-based
T1 construct: host or cells: AtT-20 (murine pituitary corticotroph adenoma cells)
T1 sequence (P35347 24-415): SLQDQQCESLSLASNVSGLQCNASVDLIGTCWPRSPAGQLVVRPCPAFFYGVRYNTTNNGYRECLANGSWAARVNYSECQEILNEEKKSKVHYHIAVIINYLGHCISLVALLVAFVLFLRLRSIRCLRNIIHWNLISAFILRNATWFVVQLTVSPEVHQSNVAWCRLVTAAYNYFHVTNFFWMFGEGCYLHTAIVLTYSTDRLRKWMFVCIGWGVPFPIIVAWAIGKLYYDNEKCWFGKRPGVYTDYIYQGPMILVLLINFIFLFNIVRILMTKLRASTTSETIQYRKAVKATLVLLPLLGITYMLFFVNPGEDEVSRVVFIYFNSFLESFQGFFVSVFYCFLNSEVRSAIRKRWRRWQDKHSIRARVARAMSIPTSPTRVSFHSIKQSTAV
Description: (§1) Cell culture and sample preparation—AtT-20 cells were purchased from ATCC and were maintained at 37° C. in 5% CO2 in humidified air in Dulbecco's modified Eagle's medium (Invitrogen Life Technologies) containing 10% fetal bovine serum, 50% horse serum and 4.5 g/L D-glucose. For experiments cells were seeded in 25 cm^2 flasks. The medium was replaced 48 h later and cells were treated with either 0.1% DMSO, 1 μM CRH (Sigma) in DMSO, 1 μM R121919 in DMSO or 1 μM CRH+1 μM R121919 in DMSO for 0, 0.5, 1, 2, 4, 8 and 24 h in fresh medium. The incubation was stopped by aspirating the incubation medium and adding 3 ml Trizol (Invitrogen Life Technologies) for lysis of the cells. Total RNA was extracted using Trizol according to the instructions of the manufacturer. 100 μg total RNA was further purificied using Rneasy kit (Qiagen) with DNAseI treatment on column.
Microarray hybridization—cRNA was prepared as follows. Reverse transcription was performed on 10 μg of total RNA for 1 h at 42° C. using a T7-oligo(dT)24-primer and SuperscriptII RT (Invitrogen Life Technologies). Second strand cDNA synthesis was done for 2 h at 16° C. using Escherichia coli DNA Polymerase I, DNA ligase and RNAseH (Invitrogen Life Technologies). After phenol-chloroform extraction using phase-lock gel (Eppendorf) in vitro transcription was performed for 6 h at 37° C. using the Bioarray high-yield RNA transcript labeling kit with Biotin labeled ribonucleotides (Enzo Diagnostics). cRNA samples were purified on Qiagen Rneasy columns followed by fragmentation for 35 min at 95° C. cRNA yields were between 50 and 100 μg. Samples were processed on GeneChips (Affymetrix, Santa Clara, Calif.). In order to check the quality of each sample, 5 μg of labeled cRNA was run on Test2-arrays. Actual experiments were performed on Murine Genome U74Av2 arrays, containing probe sets interrogating approximately 12,000 full-length mouse genes and EST clusters from the UniGene database (Build 74). Hybridization was performed using 15 μg CRNA for 16 h at 45° C. under continuous rotation. Arrays were stained in Affymetrix Fluidics stations using Streptavidin/Phycoerythrin (SAPE) followed by staining with anti-streptavidin antibody and a second SAPE staining. Subsequently arrays were scanned with a HP-Laserscanner and data were analyzed with the Microarray Suite Software (Affymetrix). No scaling or normalization was performed at this stage. Quality of the experiment was assessed based on the percentages present calls across all samples which was on average 47.06±2.45%. The cytoplasmic β-actin and GAPDH 5′/3′ ratios were 1.10±0.08 and 0.93±0.05 respectively.
Basically this alignment sets the average intensity of one array to the average measured across all arrays, compensating for array to array variations in hybridization, washing and staining, ultimately allowing a reasonable comparison between arrays. After alignment polished data were analyzed using weighted spectral mapping. Weighted spectral mapping is an unsupervised multivariate analysis method which includes double-centering of the data combined with a specialized visualization representing the two highest principle components. Even though double-centering removes the “size” component of the array data, this information is reintroduced in the visualization via the area of the symbols representing the size of the respective samples and genes. This method allows the reduction of a large microarray dataset and provides means to visually inspect and thereby identify clusters of genes and/or subjects in the data (7). A more detailed analysis was carried out using the OmniViz program. All records which were absent in all experiments were removed and all signals less than 20 were set to 20. Gene expression fold differences for CRH, R121919 and CRH+R121919 treatments were calculated at each timepoint. For those calculations signals at corresponding timepoints in DMSO treated samples were used to calculate ratios. […]

[2] = molecular target: T1, CRH-R1; test: c-fos mRNA levels by quantitative RT-PCR in AtT-20 cells; assay type: cell-based, murine
Description: as §1, with “100 μg total RNA was further purificied using Rneasy kit (Qiagen) with DNAseI treatment on column.” left out
Quantitative RT-PCR—Microarray data were confirmed using real time PCR analysis. […] Quantitative PCR was performed on a ABIPrism 7700 cycler (Applied Biosystems) using a Taqman PCR kit. […] A linear regression line calculated from the standard curves allowed the determination of transcript levels in RNA samples from the different time points.
Transcriptional response to CRH was studied in the CRH-R1-expressing murine AtT-pituitary corticotroph-derived adenoma cell line. Whereas CRH-R1 was readily detectable both by real time quantitative RT-PCR (RTq) and western blot, CRH-R2 expression could not be discerned in AtT-20 cells. […]

[3] = system: CRF1 mRNA; test: CRF1 mRNA in AtT-20 cells exposed to CRF; assay type: cell-based, murine; conditions: AtT-20 cells exposed to 1 μM CRF
Description: as §1
Quantitative RT-PCR—Microarray data were confirmed using real time PCR analysis. First strand cDNA synthesis was performed on 0.5 μg total RNA using random hexamer primers and SuperscriptII RT (Invitrogen Life Technologies). Quantitative PCR was performed on a ABIPrism 7700 cycler (Applied Biosystems) using a Taqman PCR kit. […] A linear regression line calculated from the standard curves allowed the determination of transcript levels in RNA samples from the different time points.

[4] = molecular target: corticotropin-releasing hormone receptor 1 (CRH-R1), endogenous on murine AtT-20 cells (murine) (UniProt P35347); test: cell-based or functional assay

Compound: CCCN(CCC)c1cc(C)nc2c(-c3cnc(N(C)C)cc3C)c(C)nn12 [R121919]
- suppression of CRH-induced transcriptional responses (microarray) ([1]; 1 μM CRH + 1 μM R121919): suppressed
- suppression of CRH-elicited c-fos transcription ([2]; 1 μM CRH in the presence of 1 μM R121919): almost completely suppressed

Compound: CRH: Corticotropin releasing hormone, a 41-amino acid polypeptide (Sigma)
- number of regulated genes (greater than 2-fold change in transcript levels at any one time point, relative to DMSO, differing from antagonist treatment) ([1]; 1 μM CRH, 0.5 to 24 h): 111 genes
- number of intermediate responders (responding after 1 to 2 hours of treatment) ([1]; 1 μM CRH, 1 to 2 hours): 32 genes
- number of early responders (2-fold change after 30 minutes treatment) ([1]; 1 μM CRH, 30 minutes): 26 genes
- number of late responders (response after 2 hours or more) ([1]; 1 μM CRH, 2 hours or more): 53 genes
- direction of regulation of all responder genes ([1]; after exposure to CRH): up regulated
- alterations in CRF1 mRNA [3]: not detect any alterations
- c-fos transcription (c-fos mRNA levels by RTq) ([2]; 1 μM CRH, levels already going down after 0.5 to 1 h): transient surge

Compound: corticotropin-releasing hormone (CRH) (ligand)
- microarray gene expression in AtT-20 cells (greater than 2-fold change in transcript levels against DMSO) [4]: 111 genes
